Data reported in the supplement of paper PMC10724198.
± gives the standard deviation of the averaged measurements.

Columns and labels:
Saccharomyces cerevisiae [1] = assay: protein stability index of tFT-peptide fusion (C-terminal peptide) (PSI (0-1 scale)); higher = more stable (slower turnover); details: genetic background: wild type; temperature: 30 C
Saccharomyces cerevisiae [2] = assay: as above
Procedure: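 MPS profiling in S. cerevisiae of the tFT-X12 degron library: putative degron peptides plus stable controls, 12 aa, fused to the C-terminus of a sfGFP-mCherry timer. Cells are FACS-sorted into 8 mCherry/sfGFP bins and deep-sequenced. PSI runs from 0 (unstable) to 1 (stable). Backgrounds are wild type, das1Δ and doa10Δ at 30 °C, and wild type, das1Δ, cdc34-1 and cdc53-1 at 37 °C; 2-3 technical replicates each.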

[3] = genetic background: cdc34-1, temperature: 37 C
[4] = genetic background: cdc53-1, temperature: 37 C
[5] = genetic background: das1 deletion, temperature: 30 C
[6] = genetic background: das1 deletion, temperature: 37 C
[7] = genetic background: doa10 deletion, temperature: 30 C
[8] = genetic background: wild type, temperature: 30 C
[9] = genetic background: wild type, temperature: 37 C
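Further: PSI is a weighted mean of sequencing reads over stability bins, variants kept only with over 10 reads, mCherry proximal and sfGFP distal, peptide attached via GGGS linker.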

| Sequence | protein stability index (Saccharomyces cerevisiae [1]) | protein stability index (Saccharomyces cerevisiae [2]; [3]) | protein stability index (Saccharomyces cerevisiae [2]; [4]) | protein stability index (Saccharomyces cerevisiae [2]; [5]) | protein stability index (Saccharomyces cerevisiae [2]; [6]) | protein stability index (Saccharomyces cerevisiae [2]; [7]) | protein stability index (Saccharomyces cerevisiae [2]; [8]) | protein stability index (Saccharomyces cerevisiae [2]; [9]) |
| --- | --- | --- | --- | --- | --- | --- | --- | --- |
| HFASPPAPRSNL | 0.765 ± 0.0023 | 0.799 ± 0.051 | 0.819 ± 0.023 | 0.762 ± 0.03 | 0.81 ± 0.016 | 0.785 ± 0.032 | 0.785 ± 0.032 | 0.792 ± 0.014 |
| HFLLAFMLCFGQ | 0.466 ± 0.044 | 0.4512 ± 0.0045 | 0.476 ± 0.0097 | 0.359 ± 0.039 | 0.504 ± 0.0076 | 0.336 ± 0.011 | 0.356 ± 0.021 | 0.476 ± 0.024 |
| HLILWLFFVIVF | 0.304 ± 0.23 | 0.237 ± 0.012 | 0.193 ± 0.047 | 0.216 ± 0.024 | 0.333 ± 0.0038 | 0.237 ± 0.012 | 0.186 ± 0.012 | 0.271 ± 0.0074 |
| HLRWYITGIVWF | 0.4216 ± 0.00048 | 0.4885 ± 0.0024 |  | 0.413 ± 0.11 | 0.671 ± 0.17 | 0.311 ± 0.019 | 0.359 ± 0.087 | 0.543 ± 0.017 |
| HPRPRPPPLPPP | 0.508 ± 0.032 | 0.4633 ± 0.00058 | 0.546 ± 0.019 | 0.504 ± 0.006 | 0.523 ± 0.021 | 0.544 ± 0.0083 | 0.487 ± 0.03 | 0.4943 ± 0.0044 |
| HRARILLIRICP | 0.415 ± 0.017 | 0.486 ± 0.024 | 0.517 ± 0.011 | 0.411 ± 0.024 | 0.64 ± 0.019 | 0.5034 ± 0.0046 | 0.42 ± 0.032 | 0.585 ± 0.029 |
| HRFCAPSLSASD | 0.697 ± 0.062 | 0.675 ± 0.007 | 0.722 ± 0.013 | 0.6628 ± 0.0047 | 0.7288 ± 0.0054 | 0.665 ± 0.024 | 0.666 ± 0.012 | 0.696 ± 0.0086 |
| HVLALIFLYIPD | 0.4163 ± 0.0012 | 0.43 ± 0.045 | 0.55 ± 0.032 | 0.33 ± 0.037 | 0.5422 ± 0.0044 | 0.317 ± 0.021 | 0.355 ± 0.019 | 0.501 ± 0.0067 |
| HWVRLSSLAFVS | 0.176 ± 0.01 | 0.2245 ± 0.0018 | 0.289 ± 0.011 | 0.289 ± 0.036 | 0.233 ± 0.0082 | 0.202 ± 0.022 | 0.183 ± 0.014 | 0.1895 ± 0.00075 |
| IACISCLLCVVV | 0.508 ± 0.015 | 0.608 ± 0.042 | 0.649 ± 0.038 | 0.479 ± 0.025 | 0.607 ± 0.017 | 0.479 ± 0.022 | 0.504 ± 0.0075 | 0.589 ± 0.0073 |
| IEVACLLTAFCD | 0.251 ± 0.027 | 0.22 ± 0.026 | 0.262 ± 0.0062 | 0.257 ± 0.028 | 0.225 ± 0.0027 | 0.282 ± 0.043 | 0.266 ± 0.033 | 0.209 ± 0.0052 |
| IFCRCNSTVLLI | 0.451 ± 0.024 | 0.547 ± 0.035 | 0.633 ± 0.013 | 0.483 ± 0.021 | 0.5959 ± 0.0016 | 0.365 ± 0.055 | 0.37 ± 0.018 | 0.522 ± 0.021 |
| IFFYQLYVDRLC | 0.151 ± 0.059 | 0.227 ± 0.05 | 0.292 ± 0.0067 | 0.229 ± 0.035 | 0.412 ± 0.011 | 0.0857 ± 0.012 | 0.0803 ± 0.01 | 0.0746 ± 0.0054 |
| IFSGCRIALSVF | 0.181 ± 0.0085 | 0.0412 ± 0.013 | 0.052 ± 0.021 | 0.188 ± 0.018 | 0.165 ± 0.012 | 0.104 ± 0.0034 | 0.116 ± 0.01 | 0.0944 ± 0.039 |
| IFSTQMVRFSLL | 0.362 ± 0.019 | 0.629 ± 0.052 | 0.7324 ± 0.0061 | 0.662 ± 0.0074 | 0.7692 ± 0.0033 | 0.261 ± 0.0058 | 0.272 ± 0.017 | 0.422 ± 0.018 |
| IFVFVSFPSCVL | 0.468 ± 0.012 | 0.603 ± 0.062 | 0.644 ± 0.022 | 0.56 ± 0.041 | 0.627 ± 0.0096 | 0.35 ± 0.0042 | 0.399 ± 0.026 | 0.568 ± 0.03 |
| ILFWSLLVSTIR | 0.177 ± 0.082 | 0.13 ± 0.031 | 0.223 ± 0.056 | 0.174 ± 0.034 | 0.263 ± 0.0027 | 0.137 ± 0.017 | 0.149 ± 0.035 | 0.266 ± 0.004 |
| ILRAGITYVYAV | 0.399 ± 0.04 | 0.515 ± 0.014 | 0.544 ± 0.036 | 0.325 ± 0.038 | 0.5463 ± 0.0033 | 0.264 ± 0.0082 | 0.296 ± 0.016 | 0.493 ± 0.013 |
| ILVFHFWPFLVR | 0.426 ± 0.04 | 0.411 ± 0.046 | 0.435 ± 0.015 | 0.351 ± 0.018 | 0.523 ± 0.018 | 0.418 ± 0.027 | 0.35 ± 0.017 | 0.503 ± 0.017 |
| IPGGRPLLVEVR | 0.426 ± 0.035 | 0.339 ± 0.02 | 0.384 ± 0.018 | 0.254 ± 0.044 | 0.518 ± 0.074 | 0.216 ± 0.0041 | 0.264 ± 0.033 | 0.439 ± 0.015 |
